The target in assay [1] is T1, mFc-hNKG2D (human, UniProt P26718 73-216).
T1 construct: extracellular domain; Made in house (Dragonfly Tx); the order of tag and ECD follows the name mFc-hNKG2D; also called mFc-tagged human NKG2D; not shown: mouse Fc tag
T1 sequence (looked up): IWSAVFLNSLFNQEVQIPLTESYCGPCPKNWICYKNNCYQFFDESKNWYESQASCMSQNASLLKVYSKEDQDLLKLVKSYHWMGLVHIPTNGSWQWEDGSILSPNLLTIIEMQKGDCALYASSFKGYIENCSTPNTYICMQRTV
Description: SPR Biacore 8K 37 C; mFc-hNKG2D captured on anti-mFc chip, TriNKET as analyte; steady state fit; control, n=3. On the technique in general: SPR reads the build-up and loss of mass on a sensor chip optically.

The target in assay [2] is T1, mFc-hNKG2D. Nature of the assay: SPR Biacore 8K 37 C; mFc-hNKG2D captured on anti-mFc chip, TriNKET as analyte; 1:1 kinetic fit; pH 8.0 control.
Description: Association was monitored for 60 seconds and dissociation was monitored for 60 seconds. Surfaces were regenerated between cycles with three pulses of 10 mM glycine-HCl, pH 1.7 injected for 20 seconds at 100 μL/min. HBS-EP+ (1×) buffer was used throughout the experiment. Data were analyzed using Biacore 8K Insight evaluation software (GE Healthcare).
For the next assay, the target named is T2, Human CD16a V158 (human, UniProt P08637 17-208, biotinylated).
T2 construct: Bought recombinant receptor; also called hCD16a (V158); hFcγRIIIa V158
Nature of the assay: SPR, summary of FcγR affinities.

For a further assay, the target named is T3, Human CD16a F158 (human, UniProt P08637 17-208, biotinylated).
T3 construct: Bought recombinant receptor; also called hFcγRIIIa F158
Description: SPR, summary of FcγR affinities.

The next assay deals with T4, Cynomolgus CD16 (cynomolgus monkey, UniProt Q8SPW2 17-208, biotinylated).
T4 construct: Bought recombinant receptor; also called cFcγRIII; Cynomolgus FcγRIII
Description: SPR, summary of FcγR affinities.

For another assay, the target named is T5, Human CD64 (human, UniProt P12314 16-288, biotinylated).
T5 construct: Bought recombinant receptor; also called hFcγRI; Human CD64 (FcγRI)
Nature of the assay: SPR, summary of FcγR affinities.

For another assay, the target named is T6, Cynomolgus CD64 (cynomolgus monkey, UniProt A0A2K5U901 33-309, Probably biotinylated for capture, as in the sister examples (p-1094).).
T6 construct: Bought recombinant receptor; also called cFcγRI; Cynomolgus CD64 (FcγRI); not shown: The vendor's biotinylation and purification tag
Description: SPR, summary of FcγR affinities.

In another assay the target is T7, Human CD32a H131 (human, UniProt P12318 36-218, limits assumed, biotinylated).
T7 construct: Bought recombinant receptor; also called hFcγRIIa H131
T7 sequence (looked up): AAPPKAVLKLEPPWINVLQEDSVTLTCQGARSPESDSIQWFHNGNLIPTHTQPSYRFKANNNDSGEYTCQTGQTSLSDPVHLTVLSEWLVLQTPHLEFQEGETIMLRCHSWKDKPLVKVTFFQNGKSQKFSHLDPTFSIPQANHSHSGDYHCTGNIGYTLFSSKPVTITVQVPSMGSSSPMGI
Nature of the assay: SPR, summary of FcγR affinities.

The target in a further assay is T8, Human CD32a R131 (human, UniProt P12318 36-218, limits assumed, biotinylated).
T8 construct: Bought recombinant receptor; also called hFcγRIIa R131
T8 sequence (looked up): T7 sequence (looked up) with H132R
Description: SPR, summary of FcγR affinities.

The target in the next assay is T9, Human CD32b (human, UniProt P31994 46-217, limits assumed, biotinylated).
T9 construct: Bought recombinant receptor; also called hFcγRIIb
T9 sequence (looked up): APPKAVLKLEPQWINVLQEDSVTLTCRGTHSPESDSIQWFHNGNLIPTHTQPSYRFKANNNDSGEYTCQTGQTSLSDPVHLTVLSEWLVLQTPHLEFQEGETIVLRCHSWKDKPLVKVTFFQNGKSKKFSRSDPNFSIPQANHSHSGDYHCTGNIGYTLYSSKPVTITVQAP
Description: SPR, summary of FcγR affinities.

The target in the next assay is T10, Human CD16b (human, UniProt O75015 17-200, limits assumed, biotinylated).
T10 construct: Bought recombinant receptor; also called hFcγRIIIb
Description: SPR, summary of FcγR affinities.

The next assay concerns the target T11, Human CLEC12A-His (human, UniProt Q5QGZ9 65-265).
T11 construct: Recombinant soluble protein made in house; also called hCLEC12A-His; hCLEC12A; not shown: His tag
T11 sequence: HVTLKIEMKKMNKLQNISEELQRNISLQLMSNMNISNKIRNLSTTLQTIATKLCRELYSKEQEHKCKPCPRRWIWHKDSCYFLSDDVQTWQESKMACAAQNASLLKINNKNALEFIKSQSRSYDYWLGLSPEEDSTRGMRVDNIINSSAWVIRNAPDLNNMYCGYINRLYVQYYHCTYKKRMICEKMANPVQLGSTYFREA
Nature of the assay: SPR, untreated CLEC12A; average of 3 replicates.

Another assay has as its target T12, De-sialylated CLEC12A (human, UniProt Q5QGZ9 65-265, treated with neuraminidase (terminal sialic acids removed)).
T12 construct: Recombinant human CLEC12A after neuraminidase; also called de-sialylated hCLEC12A
T12 sequence: T11 sequence
Description: SPR, de-sialylated CLEC12A; average of 3 replicates.

The target in assay [3] is T13, human CLEC12A expressed on cells (human, UniProt Q5QGZ9 1-265).
T13 construct: Transduced isogenic cells or endogenous expression on AML cells; also called RMA-hCLEC12A; Ba/F3-hCLEC12A
T13 sequence: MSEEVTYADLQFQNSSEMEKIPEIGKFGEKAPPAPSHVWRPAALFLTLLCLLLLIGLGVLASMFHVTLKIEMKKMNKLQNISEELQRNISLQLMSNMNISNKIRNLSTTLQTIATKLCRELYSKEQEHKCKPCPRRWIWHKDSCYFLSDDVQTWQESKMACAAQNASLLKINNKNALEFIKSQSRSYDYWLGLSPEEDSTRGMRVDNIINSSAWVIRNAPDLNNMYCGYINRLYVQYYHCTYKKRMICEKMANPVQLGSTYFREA
Nature of the assay: flow cytometry, hCLEC12A+ Ba/F3. In general terms: A flow cytometer gives signals particle by particle.

Changes are numbered by the printed parent chain.

By Kd is commonly meant the concentration at which binding is half-saturated. One may read the koff as the first-order rate constant of dissociation. A lower koff goes with a long-lived complex. As usually defined, the kon is the second-order rate constant of association. The low end stands for slower complex formation, the high end for faster complex formation. One may read the EC50 as the concentration needed to bring the measured effect to its halfway point. Higher therefore signals a less potent agent.

T6 sequence (A0A2K5U901 entry or part of it limits assumed): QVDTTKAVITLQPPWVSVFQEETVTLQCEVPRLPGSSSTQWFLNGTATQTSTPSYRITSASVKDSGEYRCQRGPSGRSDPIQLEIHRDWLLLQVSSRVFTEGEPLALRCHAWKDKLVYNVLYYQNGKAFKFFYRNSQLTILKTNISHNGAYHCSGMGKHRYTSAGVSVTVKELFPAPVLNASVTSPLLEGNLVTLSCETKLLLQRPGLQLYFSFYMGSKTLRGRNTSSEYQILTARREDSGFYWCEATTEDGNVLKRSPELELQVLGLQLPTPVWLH
T3 sequence (P08637 17-208 limits assumed): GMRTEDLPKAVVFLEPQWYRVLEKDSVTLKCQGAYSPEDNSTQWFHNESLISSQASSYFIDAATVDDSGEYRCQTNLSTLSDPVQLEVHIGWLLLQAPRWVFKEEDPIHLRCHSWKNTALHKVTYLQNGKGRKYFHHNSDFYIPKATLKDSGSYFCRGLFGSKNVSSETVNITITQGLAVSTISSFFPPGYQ
T5 sequence (P12314 16-288 limits assumed): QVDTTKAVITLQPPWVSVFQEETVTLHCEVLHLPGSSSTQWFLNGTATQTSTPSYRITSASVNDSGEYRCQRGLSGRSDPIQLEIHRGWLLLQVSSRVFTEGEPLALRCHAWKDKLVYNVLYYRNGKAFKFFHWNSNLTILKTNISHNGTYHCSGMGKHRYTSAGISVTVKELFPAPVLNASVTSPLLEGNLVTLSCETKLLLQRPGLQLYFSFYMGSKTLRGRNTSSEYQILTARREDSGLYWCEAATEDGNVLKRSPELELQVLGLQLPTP
T2 sequence (P08637 17-208 F176V limits assumed): as the sequence (P08637 17-208 limits assumed) above, with F160V counted along it
T10 sequence (O75015 17-200 limits assumed): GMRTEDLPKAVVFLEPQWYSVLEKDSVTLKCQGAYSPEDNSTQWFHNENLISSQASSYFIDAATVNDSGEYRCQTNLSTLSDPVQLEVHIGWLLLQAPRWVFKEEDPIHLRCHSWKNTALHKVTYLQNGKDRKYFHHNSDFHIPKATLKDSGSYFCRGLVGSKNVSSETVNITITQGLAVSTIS
T4 sequence (Q8SPW2 17-208 limits assumed): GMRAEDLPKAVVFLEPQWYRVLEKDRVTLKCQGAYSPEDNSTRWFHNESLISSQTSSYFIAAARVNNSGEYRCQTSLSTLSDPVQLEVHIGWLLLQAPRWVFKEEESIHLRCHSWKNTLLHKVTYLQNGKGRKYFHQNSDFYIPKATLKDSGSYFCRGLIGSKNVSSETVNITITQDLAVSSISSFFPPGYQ

B1: F3'-1602 TriNKET (bispecific antibody, human IgG1, kappa)
chain: QLQLQESGPGLVKPSETLSLTCTVSGFSLTNYGLHWIRQPPGKCLEWIGVIWSGGKTDYNPSLKSRVTISKDTSKNQFSLKLSSVQAADTAVYYCAKYDYDDSLDYWGQGTLVTVSSGGGGSGGGGSGGGGSGGGGSDIQMTQSPSSLSASVGDRVTITCHASQNINFWLSWYQQKPGKAPKLLIYEASNLHTGVPSRFSGSGSGTRFTLTISSLQPEDIATYYCQQSHSYPLTFGCGTKLEIKGSDKTHTCPPCPAPELLGGPSVFLFPPKPKDTLMISRTPEVTCVVVDVSHEDPEVKFNWYVDGVEVHNAKTKPREEQYNSTYRVVSVLTVLHQDWLNGKEYKCKVSNKALPAPIEKTISKAKGQPREPRVYTLPPCRDELTKNQVSLTCLVKGFYPSDIAVEWESNGQPENNYKTTPPVLVSDGSFTLYSKLTVDKSRWQQGNVFSCSVMHEALHNHYTQKSLSLSPG
heavy: EVQLVESGGGLVKPGGSLRLSCAASGFTFSSYSMNWVRQAPGKGLEWVSSISSSSSYIYYADSVKGRFTISRDNAKNSLYLQMNSLRAEDTAVYYCARGAPIGAAAGWFDPWGQGTLVTVSSASTKGPSVFPLAPSSKSTSGGTAALGCLVKDYFPEPVTVSWNSGALTSGVHTFPAVLQSSGLYSLSSVVTVPSSSLGTQTYICNVNHKPSNTKVDKKVEPKSCDKTHTCPPCPAPELLGGPSVFLFPPKPKDTLMISRTPEVTCVVVDVSHEDPEVKFNWYVDGVEVHNAKTKPREEQYNSTYRVVSVLTVLHQDWLNGKEYKCKVSNKALPAPIEKTISKAKGQPREPQVCTLPPSRDELTENQVSLTCLVKGFYPSDIAVEWESNGQPENNYKTTPPVLDSDGSFFLYSWLTVDKSRWQQGNVFSCSVMHEALHNHYTQKSLSLSPG
light: DIQMTQSPSSVSASVGDRVTITCRASQGISSWLAWYQQKPGKAPKLLIYAASSLQSGVPSRFSGSGSGTDFTLTISSLQPEDFATYYCQQGVSFPRTFGGGTKVEIKRTVAAPSVFIFPPSDEQLKSGTASVVCLLNNFYPREAKVQWKVDNALQSGNSQESVTEQDSKDSTYSLSSTLTLSKADYEKHKVYACEVTHQGLSSPVTKSFNRGEC
notes: Trispecific F3' format: CLEC12A scFv-Fc paired with NKG2D Fab-Fc; Stressed and control samples of the stability studies are the same molecule; also called AB0237
In the assay with mFc-hNKG2D [1], B1 displayed a Kd of 710 nM. In the assay with mFc-hNKG2D [2], the equilibrium dissociation constant (Kd) worked out at 694 nM, the koff was 0.125 s⁻¹ and the on-rate (kon) is 180000 M⁻¹ s⁻¹.

B2: AB0192 TriNKET (other)
chain: EVQLVESGGGVVQPGGSLRLSCAASGFTFNAFGMHWVRQAPGKCLEWVAFISSGSTSIYYANTVKGRFTISRDNSKNTLYLQMNSLRAEDTAVYYCARDGYPTGGAMDYWGQGTSVTVSSGGGGSGGGGSGGGGSGGGGSDIQMTQSPSSLSASVGDRVTITCKASQDIYNYLSWFQQKPGKAPKPLIYRANILVSGVPSRFSGSGSGQDYTFTISSLQPEDIATYYCLQFDAFPFTFGCGTKLEIKGSDKTHTCPPCPAPELLGGPSVFLFPPKPKDTLMISRTPEVTCVVVDVSHEDPEVKFNWYVDGVEVHNAKTKPREEQYNSTYRVVSVLTVLHQDWLNGKEYKCKVSNKALPAPIEKTISKAKGQPREPRVYTLPPCRDELTKNQVSLTCLVKGFYPSDIAVEWESNGQPENNYKTTPPVLVSDGSFTLYSKLTVDKSRWQQGNVFSCSVMHEALHNHYTQKSLSLSPG
heavy: B1 heavy
light: B1 light
notes: the condition stands under assay; also called AB0192 Lot AB0192-005
For B2, the Kd in the assay with Human CD16a V158 amounted to 178 nM; in the assay with Human CD16a F158 it was 680 nM; with Cynomolgus CD16, 204 nM; with Human CD64, 5.2 nM; with Cynomolgus CD64, 1.9 nM; in the assay with Human CD32a H131, 1010 nM. The Kd with Human CD32a R131 was 1400 nM; with Human CD32b it was 6060 nM; with Human CD16b, 6010 nM; with Human CLEC12A-His, 1.65 nM; in the assay with De-sialylated CLEC12A, 1.04 nM. The values for the koff with Human CLEC12A-His and with De-sialylated CLEC12A were 0.00115 s⁻¹ and 0.00104 s⁻¹, respectively. Besides, the kon with Human CLEC12A-His is 698000 M⁻¹ s⁻¹; with De-sialylated CLEC12A, 1.01e+06 M⁻¹ s⁻¹.

B3: F3'-1602 TriNKET (other)
chain: B1 chain
heavy: B1 heavy
light: B1 light
notes: CLEC12A scFv-Fc, NKG2D A49MI Fab-Fc, human IgG1 Fc; also called AB0237
B3: in [3], the EC50 is 14.4 nM and the “Max MFI” value was determined as 50200 MFI.

For the origin of these results see patent US20220119534A1 (DRAGONFLY THERAPEUTICS, published 2022).
